Measured values published in IntAct's records for PubMed 25461530.

B1: Dipeptidyl peptidase 4 (Homo sapiens), P27487 (parent)
chain: MKTPWKVLLGLLGAAALVTIITVPVVLLNKGTDDATADSRKTYTLTDYLKNTYRLKLYSLRWISDHEYLYKQENNILVFNAEYGNSSVFLENSTFDEFGHSINDYSISPDGQFILLEYNYVKQWRHSYTASYDIYDLNKRQLITEERIPNNTQWVTWSPVGHKLAYVWNNDIYVKIEPNLPSYRITWTGKEDIIYNGITDWVYEEEVFSAYSALWWSPNGTFLAYAQFNDTEVPLIEYSFYSDESLQYPKTVRVPYPKAGAVNPTVKFFVVNTDSLSSVTNATSIQITAPASMLIGDHYLCDVTWATQERISLQWLRRIQNYSVMDICDYDESSGRWNCLVARQHIEMSTTGWVGRFRPSEPHFTLDGNSFYKIISNEEGYRHICYFQIDKKDCTFITKGTWEVIGIEALTSDYLYYISNEYKGMPGGRNLYKIQLSDYTKVTCLSCELNPERCQYYSVSFSKEAKYYQLRCSGPGLPLYTLHSSVNDKGLRVLEDNSALDKMLQNVQMPSKKLDFIILNETKFWYQMILPPHFDKSKKYPLLLDVYAGPCSQKADTVFRLNWATYLASTENIIVASFDGRGSGYQGDKIMHAINRRLGTFEVEDQIEAARQFSKMGFVDNKRIAIWGWSYGGYVTSMVLGSGSGVFKCGIAVAPVSRWEYYDSVYTERYMGLPTPEDNLDHYRNSTVMSRAENFKQVEYLLIHGTADDNVHFQQSAQISKALVDVGVDFQAMWYTDEDHGIASSTAHQHIYTHMSHFIKQCFSLP

Variants of: B1
Conditions: with spike_mers1 S

**Q.** For K267A, which “effect of a mutation on the interaction” value is on record?
**A.** disrupting interaction strength

**Q.** Which “effect of a mutation on the interaction” value does the source give for K267E here?
**A.** disrupting interaction strength

**Q.** How did the “effect of a mutation on the interaction” value turn out when L294A;I295A was run?
**A.** disrupting interaction strength

**Q.** How did the “effect of a mutation on the interaction” value turn out when L294D;I295D was run?
**A.** disrupting interaction strength

**Q.** For R317A, which “effect of a mutation on the interaction” value is on record?
**A.** decreasing interaction strength

**Q.** For Q344A, which “effect of a mutation on the interaction” value is on record?
**A.** with no effect

**Q.** How did the “effect of a mutation on the interaction” value turn out when R336A was run?
**A.** decreasing interaction strength
